Experimental data as given in PMC8639797 (Nature, 2021).
Positions count from the first letter of the chain named. Numbers in names are those of the source.

Legend:
AUC = target: the molecule itself; experiment: AUC
SEC-MALS + AUC = target: the molecule itself; experiment: SEC-MALS + AUC
[1] = target: ALK-ECR^ABR (residues 673–1025) (human); experiment: SEC-MALS
[2] = target: ALK-ECR^ABR−4M (T686A/N787A/Q788A/I795A) (human, UniProt Q9UM73 673-1025, T686A | N787A | Q788A | I795A); experiment: SEC-MALS + AUC

B1: MBP-ALKAL2^C66Y (ligand, human)
chain: AEPREPADGQALLRLVVELVQELRKHHSAEHKGLQLLGRDYALGRAEAAGLGPSPEQRVEIVPRDLRMKDKFLKHLTGPLYFSPKCSKHFHRLYHNTRDCTIPAYYKRCARLLTRLAVSPVCMEDKQ
- Kd (AUC): 38 ± 6 µM

B2: ALK ECR^ABR−4M:ALKAL2^2M 1:1 complex (complex, human)
chain 1: QTPIFDPTVHWLFATCGASGPHGPTQAQCNNAYQNSNLSVEVGSEGPLKGIQIWKVPATDTYSISGYGAAGGKGGKNTMMRSHGVSVLGIFNLEKDDMLYILVGQQGEDACPSTAALIQKVCAGENNVIEEEIRVNRSVHEWAGGGGGGGGATYVFKMKDGVPVPLIIAAGGGGRAYGAKTDTFHPERLENNSSVLGLNGNSGAAGGGGGWNDNTSLLWAGKSLQEGATGGHSCPQAMKKWGWETRGGFGGGGGGCSSGGGGGGYIGGNAASNNDPEMDGEDGVSFISPLGILYTPALKVMEGHGEVNIKHYLNCSHCEVDECHMDPESHKVICFCDHGTVLAEDGVSCIVSP
chain 2: B1 chain with I102A, Y105A
- fold reduction of dimerization to the 2:2 complex against the wild-type complex (SEC-MALS + AUC): 5 fold

B3: ALKAL2^C66Y (full-size, MBP removed) (ligand, human)
chain: B1 chain
- stoichiometry N [1]: 1

B4: ALKAL2^2M (full-size ALKAL2^C66Y with I127A/Y130A) (ligand, human, UniProt Q6UX46 26-152, looked up)
chain: B1 chain with I102A, Y105A
- stoichiometry N [2]: 1

B5: ALK-ECR^ABR–ALKAL2^C66Y 1:1 heterodimeric complex (complex, human)
chain 1: B2 chain 1 with A14T, A115N, A116Q, A123I
chain 2: B1 chain
- Kd (SEC-MALS + AUC): ~3.2 µM
